{"source": "paper PMC11840411", "about": "“GS2 cooperates with IPA1 to control panicle architecture” (The New Phytologist, 2025)", "binders": {"B1": {"name": "His-GS2 fusion protein (natural protein, rice (Oryza sativa), UniProt Q6ZIK5 1-394, looked up)", "chain": "MAMPYASLSPAVADHRSSPAAATASLLPFCRSTPLSAGGGGVAMGEDAPMTARWPPAAAARLPPFTAAQYEELEQQALIYKYLVAGVPVPPDLVLPIRRGLDSLAARFYNHPALGYGPYFGKKLDPEPGRCRRTDGKKWRCSKEAAPDSKYCERHMHRGRNRSRKPVETQLVAQSQPPSSVVGSAAAPLAAASNGSSFQNHSLYPAIAGSNGGGGGRNMPSSFGSALGSQLHMDNAAPYAAVGGGTGKDLRYTAYGTRSLADEQSQLITEAINTSIENPWRLLPSQNSPFPLSSYSQLGALSDLGQNTPSSLSKVQRQPLSFFGNDYAAVDSVKQENQTLRPFFDEWPKGRDSWSDLADENANLSSFSGTQLSISIPMASSDFSAASSRSTNGD", "notes": "GS2/OsGRF4 of rice, full-length CDS in pET28a"}, "B2": {"name": "GCCA core motif probe (GS2-EMSA) (dsDNA)", "DNA 1": "CCTGTCAAAGCCGGCCATCGCTGCCGGCTG", "DNA 2": "CAGCCGGCAGCGATGGCCGGCTTTGACAGG"}}, "key": {"GST-IPA1 fusion protein": {"target": "T1, GST-IPA1 fusion protein (rice (Oryza sativa), UniProt Q7EXZ2 1-417)", "T1 construct": "IPA1/OsSPL14 of rice, full-length CDS in pGEX-4T-1; source: E. coli BL21 (DE3), purified on glutathione beads", "T1 sequence (looked up)": "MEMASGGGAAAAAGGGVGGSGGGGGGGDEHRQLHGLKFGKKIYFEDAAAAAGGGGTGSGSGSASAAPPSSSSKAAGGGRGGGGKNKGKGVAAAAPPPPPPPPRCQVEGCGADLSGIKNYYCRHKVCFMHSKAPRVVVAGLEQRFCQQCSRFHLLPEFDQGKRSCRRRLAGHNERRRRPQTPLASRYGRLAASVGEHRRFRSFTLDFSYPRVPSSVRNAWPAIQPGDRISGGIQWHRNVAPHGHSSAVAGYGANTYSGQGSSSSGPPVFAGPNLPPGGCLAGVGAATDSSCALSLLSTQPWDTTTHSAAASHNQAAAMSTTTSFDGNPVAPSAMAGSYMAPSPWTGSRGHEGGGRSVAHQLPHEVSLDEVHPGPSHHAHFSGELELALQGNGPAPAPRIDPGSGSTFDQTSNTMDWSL", "test": "pull-down; about 0.5 μg GST-IPA1 bound to GST beads at 4°C for 2 h, the same amount of His-GS2 incubated for 2 h; 150 mM KCl, 50 mM Tris-HCl pH 7.5, 0.01% NP-40; detected with His and GST antibodies", "details": "both partners purified"}, "GS2 (OsGRF4)": {"target": "T2, GS2 (OsGRF4) (Oryza sativa (rice), ZH11?, UniProt Q6ZIK5 1-394)", "T2 sequence": "B1 chain", "test": "EMSA; EMSA: 20 min at 25 C, 4% acrylamide gel, biotin probes (Beyotime GS008/GS009); buffer, salt and pH not stated", "details": "protein: recombinant; tags: GST; label: biotin; blunt"}, "[1]": {"target": "T3, GS2TM (miR396 target-site mutant) (Oryza sativa (rice), GS2TM plants?, UniProt Q6ZIK5 1-394, S163K)", "T3 sequence": "B1 chain with S163K", "test": "EMSA; EMSA: 20 min at 25 C, 4% acrylamide gel, biotin probes (Beyotime GS008/GS009); buffer, salt and pH not stated", "details": "protein: recombinant; tags: GST; label: biotin; blunt"}}, "note": "Where a chain is given by its changes, count along the chain named."}
{"binder": "B1", "values": [{"measurement": "binding result", "setting": "GST-IPA1 fusion protein", "result": "binds"}]}
{"binder": "B2", "values": [{"measurement": "binding result", "setting": "GS2 (OsGRF4)", "result": "binds"}, {"measurement": "binding result", "setting": "[1]", "result": "binds"}]}
